The results in this text go back to PMC4721865.

For assay [1], the target named is ASP1-GST fusion protein (aspartic protease ASP-1 of C. elegans) (C. elegans) (UniProt G5EEI4). The experiment in a line: ELISA; plates coated with 0.5 ug ASP-1/well in 20 mM HEPES pH 8.0, blocked with PBST 3% BSA, increasing concentrations of biotinylated toxin; specific binding = total minus binding with 1000-fold molar excess of unlabeled Cry6Aa. Background: An ELISA detects its analyte on a solid surface through an enzyme-linked reagent.

Assay [2] shares this target. The experiment in a line: ITC; 25 C, 20 mM HEPES pH 8.0; 21.16 uM Cry6Aa titrated into 2.20 uM ASP-1 in the cell, 20 injections of 10 uL. Background: Isothermal titration calorimetry measures the heat released or taken up as one component is titrated into another.

Take “biotin-labeled crystal protein Cry6Aa (from UniProt Q45757 1-475) (natural protein)”: in assay [1], the Kd is 146 nM. Regarding “crystal protein Cry6Aa (unlabeled) (from UniProt Q45757 1-475) (natural protein)”, the Kd in assay [2] turned out to be 126 nM.

One may read the Kd as the free concentration of one partner at which half of the binding sites on the other are occupied at equilibrium, for simple one-to-one binding. The low end stands for higher affinity, the high end for lower affinity.
